Data taken from patent US20230031980A1 (SHANGHAI NINTH PEOPLE S HOSPITAL SHANGHAI JIAO TONG …, published 2023).

B1: SAGE1 (Sarcoma antigen 1), full-length protein in cells (other)
chain: MQASPLQTSQPTPPEELHAAAYVFTNDGQQMRSDEVNLVATGHQSKKKHSRKSKRHSSSKRRKSMSSWLDKQEDAAVTHSICEERINNGQPVADNVLSTAPPWPDATIAHNIREERMENGQSRTDKVLSTAPPQLVHMAAAGIPSMSTRDLHSTVTHNIREERMENGQPQPDNVLSTGPTGLINMAATPIPAMSARDLYATVTHNVCEQKMENVQPAPDNVLLTLRPRRINMTDTGISPMSTRDPYATITYNVPEEKMEKGQPQPDNILSTASTGLINVAGAGTPAISTNGLYSTVPHNVCEEKMENDQPQPNNVLSTVQPVIIYLTATGIPGMNTRDQYATITHNVCEERVVNNQPLPSNALSTVLPGLAYLATADMPAMSTRDQHATIIHNLREEKKDNSQPTPDNVLSAVTPELINLAGAGIPPMSTRDQYATVNHHVHEARMENGQRKQDNVLSNVLSGLINMAGASIPAMSSRDLYATITHSVREEKMESGKPQTDKVISNDAPQLGHMAAGGIPSMSTKDLYATVTQNVHEERMENNQPQPSYDLSTVLPGLTYLTVAGIPAMSTRDQYATVTHNVHEEKIKNGQAASDNVFSTVPPAFINMAATGVSSMSTRDQYAAVTHNIREEKINNSQPAPGNILSTAPPWLRHMAAAGISSTITRDLYVTATHSVHEEKMTNGQQAPDNSLSTVPPGCINLSGAGISCRSTRDLYATVIHDIQEEEMENDQTPPDGFLSNSDSPELINMTGHCMPPNALDSFSHDFTSLSKDELLYKPDSNEFAVGTKNYSVSAGDPPVTVMSLVETVPNTPQISPAMAKKINDDIKYQLMKEVRRFGQNYERIFILLEEVQGSMKVKRQFVEFTIKEAARFKKVVLIQQLEKALKEIDSHCHLRKVKHMRKR
notes: Endogenous protein in HuTu 80, K562, U2OS and KYSE30 cells (IP-MS); also called endogenous SAGE1; ectopically expressed SAGE1
B2: mutant SAGE1I3BD (other)
chain: AMAKKINDDIKYQLAKEVRRAGANYERIFILLEEVQGSMKVKRQFVEFTIKEAAAAAKVVLIQQLEKALKEIDSHCHLRKVKHMRKR
notes: also called mutant SAGE1I3BD (alanine substitutions of six key interface residues)
B3: INIP (INTS3 and NABP interacting protein) (other, UniProt Q9NRY2 2-104, looked up)
chain: AANSSGQGFQNKNRVAILAELDKEKRKLLMQNQSSTNHPGASIALSRPSLNKDFRDHAEQQHIAAQQKAALQHAHAHSSGYFITQDSAFGNLILPVLPRLDPE

Experiments:
[1] = molecular target: INTS3 (integrator complex subunit 3), endogenous full-length protein (human, UniProt Q68E01 2-1043); experiment: IP-MS with anti-INTS3 antibody in SAGE1-overexpressing 293T cells
Description: Given that SAGE1I3BD highly resembles INTS6I3BD, it is likely that they interact with INTS3CTD in a mutually exclusive manner. To test this idea, we mixed purified INTS3CTD-INTS6I3BD complex with GST-tagged SAGE1I3BD and conducted a GST-pull-down analysis.
For IP, 1×10^7 cells were lysed in lysis buffer (20 mM Tris-HCl, 150 mM NaCl, 10% Glycerol, 0.5% TritonX-100, 1 mM EDTA, 1 mM EGTA, pH7.4) supplemented with protease inhibitor cocktail (Sigma-Aldrich, #B14001), incubated in 4° C. for 10 min and sonicated by Bioruptor Plus (Diagenode) (5-10% amplitude/power, ON 5 sec-OFF 5 sec) for 1 min. After centrifugation (14,000 rpm, 15 min, 4° C., 1 mg of supernatants were incubated with 5 μg of rabbit anti-SAGE1 polyclonal antibody (Novus Biologicals, #NBP1-84355, or Abcam, #ab233388) and rabbit anti-
INTS3 polyclonal antibody (Novus Biologicals, #NBP1-19091) for 16 hours respectively. Next day, 20 μL of Protein G beads (Millipore, #LSKMAGG02) were added into each tube and incubated for 3 more hours. Then beads were harvested and washed for three times with lysis buffer and eluted by 0.2 M Glycine (pH 2.2).

[2] = molecular target: T1, CBP (CRBP-binding protein) (UniProt Q92793 2-2442, limits assumed); experiment: IP of the endogenous SAGE1 complex with anti-SAGE1 antibody (HuTu 80 and other SAGE1-expressing cancer cell lines), MS
T1 construct: also called CREBBP
Description: (§1) To gain mechanistic insight into SAGE1 function in tumorigenesis, we performed a proteomic analysis of the endogenous SAGE1 complex pulled down in HuTu 80 cells by an anti-SAGE1 antibody. The complex was resolved by SDS-PAGE, visualized by silver staining, and subjected to MS analysis (FIG. 6A and FIGS. 14A-14D). A number of proteins previously linked to transcriptional regulation were reproducibly identified as high-confidence SAGE1 interactors, including CBP (CRBP-binding protein), TLE (Groucho/Transducin-Like Enhancer of Split) proteins, INTS3 (a component of the Integrator complex) and INTS3-binding partners NABP (Nucleic Acid Binding Protein) and INIP (INTS3 and NABP interacting protein) (FIG. 6B). […] The interactions between SAGE1 and these proteins were further confirmed by co-immunoprecipitation (co-IP) analysis (FIG. 6C and FIG. 6D).
(§2) For IP, 1×10^7 cells were lysed in lysis buffer (20 mM Tris-HCl, 150 mM NaCl, 10% Glycerol, 0.5% TritonX-100, 1 mM EDTA, 1 mM EGTA, pH7.4) supplemented with protease inhibitor cocktail (Sigma-Aldrich, #B14001), incubated in 4° C. for 10 min and sonicated by Bioruptor Plus (Diagenode) (5-10% amplitude/power, ON 5 sec-OFF 5 sec) for 1 min. After centrifugation (14,000 rpm, 15 min, 4° C., 1 mg of supernatants were incubated with 5 μg of rabbit anti-SAGE1 polyclonal antibody (Novus Biologicals, #NBP1-84355, or Abcam, #ab233388) and rabbit anti- […]

[3] = molecular target: T2, INTS3CTD (C-terminal domain of INTS3, residues 572-978) (human, UniProt Q68E01 573-979); experiment: ITC
T2 construct: also called INTS3CTD dimer
Description: The equilibrium dissociation constant of the SAGE1I3BD-INTS3CTD interaction was determined using a MicroCal iTC200 calorimeter (Malvern). The binding enthalpy was measured at 16° C. in 25 mM Tris-HCl pH 8.0, 150 mM NaCl and 5 mM MgCl2. Two independent experiments were performed. ITC data were subsequently analyzed and fitted using Origin 7 software (OriginLab).
All statistical tests of experimental results were performed using the GraphPad Prism 7 unless noted. The statistical significance was calculated via unpaired two-tailed Student's t test. The dissociation constants (Kd) in ITC experiments were calculated using the Origin 7 software as mean±standard error from two independent experiments with a single site-specific binding model. The statistical analysis of in vivo experiments data was performed using nonparametric Mann-Whitney test. Results were represented as mean±standard deviation unless noted and p<0.05 was considered statistically significant.

[4] = molecular target: B1; experiment: IP of the endogenous SAGE1 complex with anti-SAGE1 antibody (HuTu 80 and other SAGE1-expressing cancer cell lines), MS
Description: as §1, §2

T1 sequence (Q92793 2-2442 limits assumed): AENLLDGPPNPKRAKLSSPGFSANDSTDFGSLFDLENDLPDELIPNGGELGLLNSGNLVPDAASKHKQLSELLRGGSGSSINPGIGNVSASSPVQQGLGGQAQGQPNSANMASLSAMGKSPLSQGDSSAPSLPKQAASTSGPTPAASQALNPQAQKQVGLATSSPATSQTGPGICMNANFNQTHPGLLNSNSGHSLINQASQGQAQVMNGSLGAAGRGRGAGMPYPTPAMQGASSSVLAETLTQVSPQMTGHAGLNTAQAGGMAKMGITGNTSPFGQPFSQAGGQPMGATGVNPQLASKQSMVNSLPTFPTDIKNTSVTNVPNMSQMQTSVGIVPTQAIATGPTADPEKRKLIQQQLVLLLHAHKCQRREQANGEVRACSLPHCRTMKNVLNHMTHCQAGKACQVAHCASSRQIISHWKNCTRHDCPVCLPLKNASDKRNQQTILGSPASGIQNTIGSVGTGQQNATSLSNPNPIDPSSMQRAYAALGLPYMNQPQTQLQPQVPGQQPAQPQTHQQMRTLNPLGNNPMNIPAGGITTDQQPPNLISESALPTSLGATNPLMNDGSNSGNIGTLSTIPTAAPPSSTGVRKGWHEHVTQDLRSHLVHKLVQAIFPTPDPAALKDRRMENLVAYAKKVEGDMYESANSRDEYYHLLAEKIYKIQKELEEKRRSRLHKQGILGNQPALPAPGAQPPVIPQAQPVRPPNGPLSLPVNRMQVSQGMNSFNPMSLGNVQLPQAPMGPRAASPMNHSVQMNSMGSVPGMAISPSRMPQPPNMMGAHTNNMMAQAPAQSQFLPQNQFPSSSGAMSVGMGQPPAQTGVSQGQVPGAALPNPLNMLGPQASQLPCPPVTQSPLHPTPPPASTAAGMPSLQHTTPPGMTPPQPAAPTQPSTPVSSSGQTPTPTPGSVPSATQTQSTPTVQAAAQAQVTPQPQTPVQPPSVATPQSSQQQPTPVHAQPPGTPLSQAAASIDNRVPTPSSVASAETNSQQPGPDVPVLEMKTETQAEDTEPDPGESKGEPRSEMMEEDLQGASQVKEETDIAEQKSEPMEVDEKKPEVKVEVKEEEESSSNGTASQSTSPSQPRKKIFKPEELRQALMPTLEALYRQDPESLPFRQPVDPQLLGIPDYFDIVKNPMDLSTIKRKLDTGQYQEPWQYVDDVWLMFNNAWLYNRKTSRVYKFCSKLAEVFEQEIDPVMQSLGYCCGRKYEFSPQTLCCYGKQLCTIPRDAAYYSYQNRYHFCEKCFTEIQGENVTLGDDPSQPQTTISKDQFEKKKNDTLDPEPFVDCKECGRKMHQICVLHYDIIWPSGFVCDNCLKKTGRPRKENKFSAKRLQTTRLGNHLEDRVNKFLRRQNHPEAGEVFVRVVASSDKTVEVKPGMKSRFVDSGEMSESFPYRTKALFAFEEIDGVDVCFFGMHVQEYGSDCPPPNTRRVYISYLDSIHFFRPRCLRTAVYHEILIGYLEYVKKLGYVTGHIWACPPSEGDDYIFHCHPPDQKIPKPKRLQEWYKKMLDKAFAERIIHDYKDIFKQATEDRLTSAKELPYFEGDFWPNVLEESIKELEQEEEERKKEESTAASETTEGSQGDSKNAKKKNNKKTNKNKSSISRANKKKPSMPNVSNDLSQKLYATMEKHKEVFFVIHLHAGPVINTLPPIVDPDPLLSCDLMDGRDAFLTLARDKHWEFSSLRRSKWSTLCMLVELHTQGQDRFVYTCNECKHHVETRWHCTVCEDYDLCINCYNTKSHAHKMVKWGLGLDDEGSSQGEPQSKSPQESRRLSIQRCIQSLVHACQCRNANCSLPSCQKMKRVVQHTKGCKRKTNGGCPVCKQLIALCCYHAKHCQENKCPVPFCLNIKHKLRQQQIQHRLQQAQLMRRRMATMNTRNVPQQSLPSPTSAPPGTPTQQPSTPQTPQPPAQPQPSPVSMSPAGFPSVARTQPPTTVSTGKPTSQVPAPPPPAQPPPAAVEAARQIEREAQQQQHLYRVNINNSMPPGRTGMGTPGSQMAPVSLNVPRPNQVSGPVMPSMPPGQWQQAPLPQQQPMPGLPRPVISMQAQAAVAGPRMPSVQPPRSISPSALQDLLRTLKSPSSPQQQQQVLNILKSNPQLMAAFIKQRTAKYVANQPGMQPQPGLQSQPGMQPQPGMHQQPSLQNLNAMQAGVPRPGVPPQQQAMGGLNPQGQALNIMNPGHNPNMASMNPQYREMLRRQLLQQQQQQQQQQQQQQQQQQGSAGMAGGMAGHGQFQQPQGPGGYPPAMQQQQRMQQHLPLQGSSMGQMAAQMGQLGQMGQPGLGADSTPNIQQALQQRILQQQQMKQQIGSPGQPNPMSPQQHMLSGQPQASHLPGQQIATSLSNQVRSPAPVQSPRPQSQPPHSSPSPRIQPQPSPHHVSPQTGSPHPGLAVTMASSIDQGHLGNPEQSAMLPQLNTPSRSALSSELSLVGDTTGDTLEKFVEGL
Sequence of INTS3 (integrator complex subunit 3), endogenous full-length protein (Q68E01 2-1043 limits assumed, one chain of several): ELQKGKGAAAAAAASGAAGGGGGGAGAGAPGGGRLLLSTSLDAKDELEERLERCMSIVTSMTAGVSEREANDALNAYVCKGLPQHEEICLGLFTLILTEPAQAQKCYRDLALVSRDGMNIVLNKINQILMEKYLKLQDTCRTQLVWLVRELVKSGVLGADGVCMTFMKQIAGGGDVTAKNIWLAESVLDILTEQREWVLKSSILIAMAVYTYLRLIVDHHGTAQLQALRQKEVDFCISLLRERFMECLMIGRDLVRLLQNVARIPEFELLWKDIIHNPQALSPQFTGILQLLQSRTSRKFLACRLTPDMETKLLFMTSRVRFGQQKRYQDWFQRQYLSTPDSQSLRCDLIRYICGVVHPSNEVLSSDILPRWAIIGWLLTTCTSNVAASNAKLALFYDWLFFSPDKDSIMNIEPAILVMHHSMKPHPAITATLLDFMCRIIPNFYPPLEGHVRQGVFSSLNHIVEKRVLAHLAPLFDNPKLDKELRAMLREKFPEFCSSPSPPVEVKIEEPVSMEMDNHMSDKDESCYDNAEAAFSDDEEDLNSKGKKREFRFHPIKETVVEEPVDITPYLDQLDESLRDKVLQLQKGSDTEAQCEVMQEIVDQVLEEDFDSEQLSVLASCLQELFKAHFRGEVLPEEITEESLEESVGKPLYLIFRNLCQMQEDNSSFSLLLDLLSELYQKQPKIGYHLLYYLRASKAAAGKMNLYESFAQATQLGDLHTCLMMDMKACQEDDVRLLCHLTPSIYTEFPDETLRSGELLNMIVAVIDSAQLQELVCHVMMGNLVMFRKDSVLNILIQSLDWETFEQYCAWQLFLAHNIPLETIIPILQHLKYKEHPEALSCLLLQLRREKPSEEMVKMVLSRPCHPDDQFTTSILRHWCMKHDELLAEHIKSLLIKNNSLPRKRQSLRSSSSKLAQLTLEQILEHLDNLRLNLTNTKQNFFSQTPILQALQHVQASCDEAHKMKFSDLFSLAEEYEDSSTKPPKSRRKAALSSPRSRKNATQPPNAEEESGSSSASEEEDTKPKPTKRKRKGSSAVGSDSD

Binder: B1
binding result [1]: binds
binding result [2]: binds

Binder: B2
binding result [3]: no binding

Binder: B3
binding result [4]: binds
